{"source": "patent US7700353B2", "about": "“Compositions and methods for inducing apoptosis in tumor cells” (E-P Therapeutics, Inc., priority 1998, dated 2010)", "molecules": {"B1": {"name": "hEb: chemically synthesized human Eb peptide of pro-IGF-I, 77 amino acid residues (SEQ ID NO:1) (peptide, listed as Homo sapiens)", "chain": "RSVRAQRHTDMPKTQKYQPPSTNKNTKSQRRKGWPKTHPGGEQKEGTEASLQIRGKKKEQRREIGSRNAECRGKKGK"}, "B2": {"name": "rtEa-4: recombinant Ea-4 peptide of rainbow trout pro-IGF-I, 74 amino acid residues (SEQ ID NO: 2) (protein)", "chain": "RSVRAQRHTDMPRTPKVSTAVQNVDRGTERRTAQHPDKTKTKKKPLSGHSHPSCKEVHQKNSSRGNTGGRNYRM", "modifications": "Oncorhynchus mykiss"}}, "key": {"[1]": {"system": "chorioallantoic membrane (CAM) of chick embryos", "assay": "Chick embryo chorioallantoic membrane (CAM) angiogenesis assay", "format": "in vivo", "settings": "day 7", "procedure": "A suitable assay is the chick embryo chorioallantoic membrane (CAM) assay described by Crum et al. Science 230:1375 (1985). See also, U.S. Pat. No. 5,001,116, hereby incorporated by reference, which describes the CAM assay. Briefly, the Ea-4 peptide (40 µg and 80 µg), endostatin (5 µg and 10 µg) and a PBS control buffer were delivered onto the chorioallantoic membrane (CAM) of three-day old chick embryos. The CAMs were photographed in ovo with a digital camera on day 7. The angiogenic response was assessed by counting the number of intersect points of the blood vessels spread out in a defined field (vessel density). […] The effect is quantified in the histogram in FIG. 17.\nEach were dissolved in PBS, and various and known amounts of hEb-peptide (250 µg, 500 µg and 1000 µg respectively) and human endostatin (10 µg and 20 µg respectively) were applied to the CAM. Pictures were taken on day 7 for vessel density determination."}, "[2]": {"system": "MDA-MB-231 cells on chicken CAM", "assay": "Human breast cancer cells seeded on chicken CAM", "format": "in vivo", "settings": "single or multiple doses, five day old chicken embryos", "description": "The invasion of MDA-MB-231 cells in the chicken embryos was further confirmed by immunocytochemistry. […] The activity in the widely accepted chicken model, provides ample support for the belief that the methods of the invention can be used to treat cancer in animals as well as humans."}, "[3]": {"system": "CCD-1112SK primary baby foreskin cells", "excerpt": "Apoptosis of cells can also be detected by terminal deoxynucleotidyl transferase mediated dUTP nick end labeling (TUNEL) assay."}, "[4]": {"system": "MCF-7, HT-29, HepG2, ZR-75-1, SK-N-F1, or HC cells", "assay": "Morphological change assay in tumor cell lines", "format": "cell-based, human and fish", "procedure": "Approximately 1-2×10^5 of MCF-7, ZR-75-1, HT-29, HepG2, 293GP, HC or SK-N-F1 cells re-suspended in their respective basal medium without fetal bovine serum (FBS) were plated in a 6-well culture chamber. Prior to plating cells, an acid-washed coverslip was placed in each well of the culture chamber. Recombinant rainbow trout E-peptides (rtEa-2, rtEa-3 or rtEa-4 peptide at 0.8 µM), human IGF-I (hIGF-1, 2.5 nM) or the same amount of control protein was added to each well and the cell cultures were incubated at 37° C. under a humidified atmosphere of 5% CO2. The control protein was prepared from E. coli cells carrying the expression plasmid but without the E-peptide gene according to the purification method described by Tian et al. (1999). Coverslips were removed from the culture chamber 24 hours after initiation of the treatment and observed under an Olympic inverted microscope equipped with differential interference phase contrast objective lenses or phase contrast objective lens (final magnification, 200×). The morphological change assay was performed at least 10 times with different batches of Ea-4 peptide preparations.\nOncogenic transformed or established cancer cells derived from human and fish (MCF-7, HT-29, HepG2, ZR-75-1, SK-N-F1, or HC cells) were plated in their respective serum-free basal medium supplemented with 0.8 µM of the trout recombinant Ea-4-peptide, with the control protein, or with 2.5 nM of the recombinant hlGF-I and the cultures were examined 24 hours later under an inverted microscope equipped with differential interference phase contrast objectives. […] The rtEa-4 peptide treated cells developed several pseudopodia-like structures to establish contact with neighboring cells similar to that seen in untransformed or non-malignant cells.\nBecause each of these tumor cell lines obtained from ATCC contains a mixed population of tumorous and nontumorous cells, only between 25-40% of the cells from each cell line responded to induction by rtEa-4-peptide. […]"}, "HT1080 cells": {"system": "HT1080 cells", "assay": "Matrigel invasion assay", "format": "cell-based, human", "settings": "for # invaded cells/view (MIC): Matrigel insert; for # invaded cells/view (MIC) / # invaded cells/view (CIC): 24 hours; for # invaded cells/view (CIC): control insert", "procedure": "Invasion assays were conducted in BIOCOAT MATRIGEL invasion chambers following the procedure provided by Becton Dickinson Labware (Bedford, Mass.; 40480 and 40481 guidelines). According to these procedures, 1×10^6 of HT1080 cells in DMEM supplemented with 1.25% FBS, with Ea-4 peptide (0.17 µM and 0.34 µM), or the same amount of the control protein, were plated in each insert of the Matrigel or control invasion chambers. The inserts were placed in the respective chambers containing DMEM medium supplemented with 10% FBS, and the chambers were incubated at 37° C. under a humidified atmosphere of 5% CO2 for 24 hours. After removal of the non-invaded cells with cotton swabs, the invaded cells on the other side of the membranes were stained with the Diff-Quick T stain (Becton Dickinson Labware, Bedford, Mass.) and observed under an Olympic inverted microscope (magnification, 200×). Control proteins were prepared from E. coli cells carrying the expression plasmid without the Ea-4-peptide gene by the same purification method (Tian et al., 1999). The assay was repeated three times."}, "[5]": {"system": "Caspase-3 mRNA in MDA-MB-231", "assay": "Induction of caspase-3 mRNA", "format": "cell-based, human", "description": "(§1) Induction of caspase-3 has been widely used as an indicator of cells undergoing apoptosis."}, "[6]": {"system": "Caspase-3 mRNA in OVCAR-3(B)", "assay": "Induction of caspase-3 mRNA", "format": "cell-based, human", "description": "as §1"}, "[7]": {"system": "Caspase-3 mRNA in SKOV-3(A)", "assay": "Induction of caspase-3 mRNA", "format": "cell-based, human", "description": "as §1"}}, "data": [{"molecule": "B1", "values": [{"measurement": "vessel density", "setting": "[1]; 250, 500 and 1000 μg on CAM", "result": "dose-dependent reduction"}, {"measurement": "growth and invasion of MDA-MB-231 cells and induction of blood vessel formation on chicken CAM", "setting": "[2]", "result": "inhibited"}, {"measurement": "Apoptosis", "setting": "[3]", "result": "−"}]}, {"molecule": "B2", "values": [{"measurement": "morphological change", "setting": "[4]; 0.8 μM, 24 hours, serum-free basal medium", "result": "flattened out and attached tightly to the culture dish"}, {"measurement": "cells from each cell line responding to induction", "setting": "[4]; mixed population cell lines from ATCC", "result": "25-40%"}, {"measurement": "% Invasion", "setting": "HT1080 cells; 0.17 μM", "result": 19, "unit": "%"}, {"measurement": "% Reduction of invasion", "setting": "HT1080 cells; 0.17 μM", "result": 52, "unit": "%"}, {"measurement": "# invaded cells/view (MIC)", "setting": "HT1080 cells; 0.17 μM", "result": "30 ± 5", "unit": "cells/view"}, {"measurement": "# invaded cells/view (CIC)", "setting": "HT1080 cells; 0.17 μM", "result": "157 ± 6", "unit": "cells/view"}, {"measurement": "% Invasion", "setting": "HT1080 cells; 0.34 μM", "result": 15, "unit": "%"}, {"measurement": "% Reduction of invasion", "setting": "HT1080 cells; 0.34 μM", "result": 62, "unit": "%"}, {"measurement": "# invaded cells/view (MIC)", "setting": "HT1080 cells; 0.34 μM", "result": "24 ± 1", "unit": "cells/view"}, {"measurement": "# invaded cells/view (CIC)", "setting": "HT1080 cells; 0.34 μM", "result": "157 ± 6", "unit": "cells/view"}, {"measurement": "invasive activity", "setting": "HT1080 cells; 0.17 and 0.34 μM", "result": "dose-dependent reduction"}, {"measurement": "blood vessel branching", "setting": "[1]; 40 μg and 80 μg on CAM of three-day old chick embryos", "result": "inhibitory effect"}, {"measurement": "growth and invasion of MDA-MB-231 cells and induction of blood vessel formation on chicken CAM", "setting": "[2]", "result": "inhibited"}, {"measurement": "Caspase-3 mRNA", "setting": "[5]; 0.04 μM", "result": "3.9 × 10^5 ± 3.8 × 10^4 molecules / μg total RNA"}, {"measurement": "Caspase-3 mRNA", "setting": "[5]; 0.20 μM", "result": "3.4 × 10^5 ± 3.1 × 10^4 molecules / μg total RNA"}, {"measurement": "Caspase-3 mRNA", "setting": "[5]; 1.00 μM", "result": "4.6 × 10^5 ± 9.5 × 10^4 molecules / μg total RNA"}, {"measurement": "Caspase-3 mRNA", "setting": "[5]; 5.00 μM", "result": "5.8 × 10^5 ± 1.3 × 10^4 molecules / μg total RNA"}, {"measurement": "Caspase-3 mRNA", "setting": "[6]; 0.04 μM", "result": "7.8 × 10^5 ± 7.9 × 10^4 molecules / μg total RNA"}, {"measurement": "Caspase-3 mRNA", "setting": "[6]; 0.20 μM", "result": "9.9 × 10^5 ± 2.0 × 10^4 molecules / μg total RNA"}, {"measurement": "Caspase-3 mRNA", "setting": "[6]; 1.00 μM", "result": "1.9 × 10^5 ± 3.4 × 10^4 molecules / μg total RNA"}, {"measurement": "Caspase-3 mRNA", "setting": "[6]; 5.00 μM", "result": "1.0 × 10^5 ± 1.4 × 10^4 molecules / μg total RNA"}, {"measurement": "Caspase-3 mRNA", "setting": "[7]; 0.04 μM", "result": "3.0 × 10^5 ± # molecules / μg total RNA"}, {"measurement": "Caspase-3 mRNA", "setting": "[7]; 0.20 μM", "result": "2.5 × 10^5 ± # molecules / μg total RNA"}, {"measurement": "Caspase-3 mRNA", "setting": "[7]; 1.00 μM", "result": "3.7 × 10^5 ± # molecules / μg total RNA"}, {"measurement": "Caspase-3 mRNA", "setting": "[7]; 5.00 μM", "result": "2.2 × 10^5 ± # molecules / μg total RNA"}]}]}
